What was measured:
pancreatic islets = assay: Ki67 staining of cell proliferation in pancreatic islets; format: in vivo, mouse
Excerpt: Ki67 staining was used to detect cell proliferation in pancreatic islets from GCGR-antibody treated mice. Cell proliferation was negligible in islets from control antibody treated mice and in non-Gcg(+) islet cells from GCGR-antibody treated mice (FIG. 3A). However, Ki67 staining was detected in GCG(+) cells from the GCGR-antibody treated mice (FIG. 3A).

C57BL/6 mice = assay: GCGR antibody with or without rapamycin in C57BL/6 mice: blood chemistry, islet cell mass; conditions: 21 days
Protocol: C57BL/6 mice (males, 10 weeks of age, Taconic) were housed (5 mice per cage) in a controlled environment (12-h light/dark cycle, 22±1° C., 60-70% humidity) and fed ad libitum with standard chow (Purina Laboratory Rodent Diet 5001, LabDiet). Mice were assigned to study groups (n=10) based on baseline blood glucose levels. Mice were injected subcutaneously (sc) with GCGR antibody (3 mg/kg) or the control antibody (3 mg/kg) alone or in combination with rapamycin (10 mg/kg) or the vehicle. For the duration of the study, GCGR or control antibody was administered once weekly, whereas rapamycin or the vehicle was administered daily. Blood was collected from the tail for glucose measurements without fasting. Plasma samples were collected via submandibular bleeds at baseline and on day 21 after dosing for analysis of hormones and total amino acid levels. Seven days after the last antibody administration (day 21), mice were sacrificed, organs weighed and pancreata collected.
Pancreas α- and β-cell mass was measured as described elsewhere (Okamato et al., 2015, Endocrinology 156:2781-2794). α- and PP cell mass were determined using anti-somatostatin antibody (Sigma-Aldrich; #SAB4502861) and anti-pancreatic polypeptide antibody (Sigma-Aldrich; #SAB2500747). For quantifying Slc38a5 positive α-cells, pancreas sections were stained with human anti-glucagon and rabbit anti-Slc38a5 (Abcam; #ab72717) primary antibodies, and Alexa Fluor 488 labeled donkey anti-rabbit (Jackson ImmunoResearch; #711-545-152) and Alexa Fluor 594 donkey anti-human (Jackson ImmunoResearch; #709-585-149) secondary antibodies. For quantifying proliferating cells, Alexa Fluor 647 labeled anti-Ki67 (Abcam; #ab194724) was used in combination with anti-glucagon and anti-Slc38a5 antibodies. Slides were scanned using a Zeiss Axio Scan.Z1 slide scanner (Zeiss) and the images were analyzed using the Halo (Indica Labs).
Blood glucose was determined using ACCU-CHEK® Compact Plus (Roche Diagnostics). Plasma glucagon and insulin levels were determined using glucagon and mouse insulin ELISA (Mercodia). Plasma total amino acid levels were measured using L-Amino Acid Quantification Kit (Sigma-Aldrich).

Slc38a5−/− mice = assay: GCGR antibody in Slc38a5−/− mice and wildtype littermates; format: in vivo, mouse; conditions: 10 mg/kg weekly, 20 days
Protocol: Mice deficient in Slc38a5 (100% C57BL/6NTac) were generated by homologous recombination using Regeneron's VelociGene technology (Valenzuela et al., 2003, Nat Biotechnol 21:652-659). VelociGene allele identification number is VG15016. Both male and female mice were used for the study. […] Slc38a5^−/− mice and wildtype littermates were dosed with GCGR or control antibody (10 mg/kg; n=8) weekly for 20 days. Samples of blood and plasma as well as organ weights and pancreata were collected as outlined above.

Slc38a5 in α-cells = assay: Slc38a5 RNA in situ hybridization and immunofluorescence of pancreas sections; format: in vivo, mouse
Excerpt: Formalin fixed mouse pancreatic sections were permeabilized and hybridized with custom made mRNA probes to glucagon and mouse Slc38a5 (ACD BIO). Following probe hybridization and amplification, Slc38a5 mRNA was detected using red chromogen and glucagon mRNA with green chromogen (RNAscope 2.5 HD Duplex Reagent Kit) and images were obtained using a Zeiss Axio Scan.Z1 slide scanner (Zeiss).

B1: α-GCGR: potent monoclonal GCGR blocking antibody, HCVR/LCVR SEQ ID NOs: 86/88 (antibody, V domains shown)
VH: EVQLVESGGGLVQPGGSLRLSCAASGFTFSNYLMNWVRQAPGKGLEWLANIQEDGIEKYYVDSVKGRFTISRDNAKNSLYLQMNSLRAEDTAVYYCAREPSHYDILTGYDYYYGMDVWGQGTTVTVS
VL: DIQMTQSPSSLSASVGDRVTITCRASQGIRNDLGWYQQKPGKAPKRLIYAASSLQSGVPSRFSGSGSGTEFILTVSSLQPEDFATYYCLQYNSNPFTFGPGTKVDIK
- proliferation rate in Slc38a5(+) relative to Slc38a5(−) α-cells (pancreatic islets; GCGR-antibody treated mice, 11 days): 4 times
- Ki67 staining in GCG(+) cells (pancreatic islets; mice treated 11 days): detected
- blood glucose levels (C57BL/6 mice; C57BL/6 mice, 3 mg/kg weekly): reduce
- plasma amino acid levels (C57BL/6 mice; GCGR antibody 3 mg/kg): significantly increased
- α-cell size (C57BL/6 mice; GCGR antibody 3 mg/kg): slightly increased
- blood glucose levels in Slc38a5−/− mice compared with littermate control mice (Slc38a5−/− mice): to the same extent
- reduction of the expansion of α-cell mass in Slc38a5−/− mice relative to treated control mice (Slc38a5−/− mice): 50%
- plasma insulin levels (Slc38a5−/− mice; WT and Slc38a5−/− mice): No effects
- α-cell mass or number of islets per pancreas area (FIGS. 5H and 5I) (Slc38a5−/− mice; WT and Slc38a5−/− mice): did not affect
- Slc38a5 immunostaining of pancreas sections (Slc38a5 in α-cells; mice, 3 mg/kg, 21 days): detected in a subset of glucagon-positive cells
- Slc38a5 mRNA expression in α-cells (RNA ISH) (Slc38a5 in α-cells; pancreas sections of treated mice): upregulation

From US20190248888A1, “METHODS OF LOWERING BLOOD GLUCOSE LEVELS” (Regeneron Pharmaceuticals, Inc., priority 2016, published 2019)
